Reference: the DeepSol protein solubility set

assay: soluble on expression in E. coli; label from the status in PepcDB or PDB records

Row | Sequence | soluble on expression in E. coli
1 | RTDNLGLAPYGRVDLSGGSFGTFRRSVKLGSGRIGRHWAVDARLSKIGSDGYVDRGSVDLKSYFAQVGYFGSNTALRFITFGGKEVTGIAWNGLSKEDEAKYGRRYNSAGLMYVDAQGVPHYYHNTDNYEQRHYHAIMTHSFSPSVILNLTAHYTAGYGYTDEYRTGRKLKEYALQPYVENSVTVKKTDLIRQKYLDNDFGGLIGSLNWHTGAWDLQFGASGNIYKGDHFGRITYIKKYNQPLAPDFEYYRNRADKREGAAFAKANWQITPELNMYADLQYRTIGYTINGITDEYDEVQGSMQHIDLDKTFRFLNPKAGLTYSFDDAHTAYASVAVAHREPNRTNYTEAGIGQYPTPERLIDYELGYRYASPLLSAGVGLYYMQYKDQLVLDGRLSDVGQMLTSNVPDSYRMGLELTLGWQILPRLLRWDASFTMSRNKIDRYVQYTSVYDADYNWLELKEETLESTDIAYSPNVIAGSMLTLSHAGFEMAWTSRFVSKQYLDNTQRSDRMLSSYWVNDLRLGYVLPVHFVKRVALGVQLNNLFNLMYASNAYIYDAGYVQASGELSAYADLRYYPQAGFNALGSLTIDF | not soluble
2 | MAHHHHHHSLITIETVLTILKNNANFREIIDGKHYQYKYSNPEVAFHHISYDSRDIKASTLFFVKGATFKKEFLEKAIESGLTFYVAEKDYQVGIPLILVNNIKNAMCLIAKEFYDNPQDKLKTLAFTGTKGKTTAAYFAYHILKQGYRPAMISTMNTTLDGKTFFKSKLTTPESLDLFKMMAQAVANGMTHLIMEVSSQAYLVGRVYGLTFDVGVFLNISPDHIGPIEHPTFEDYFYHKRLLLKHSRYVIVNSQMNHFALIKEQVADQPHDFYGKYSDNQIINSKAFSFDLTGKLAGHYDIQLTGSFNQENAVAAALACLQLGASQTDIQKGIVQTTVPGRMEVLIQKNGAKVFVDYAHNGDSLEKLLSVVEEHQKGTLILILGAPGNKGESRRADFGYVINAHPELQVILTADDPNNEDPQLISQEIAHHIKRPVNIIVDRKQAIQKAMSLTQSENDAVIIAGKGADAFQIIKGKRTAYAGDIEVARKYLEG | soluble
3 | GPGSMTVLRRMRLTFVGTGVSSAVPVIGHLTTDCACRDAIANPSGPNRRNNVSLLISLPFAEGKSGVEWHHVLIDCGKTFRSAYMRVLAPMRVQYVDALLITHGHADAMHCVEELCGMQAEAAARYAQSVSPSSLPSSAGRTLASAVVPRTLRRVPTFLTAPTLDQIAMVSPELVTQSFHIGAAPTTGTAYHSALAATADMTARSSSSAEVLSTVMDIFYMDDTKPQRMHVPFGPLSLAASAARGVNATDAASDLPFYSFPVEHGKGYISMAWVFGRGTAFKSRQTQQQQQGSCVVYISDVSHIPATSMAFLQDLVKIDVLVLDLLAEHGAPSASHYCADEAIPLVVALAPRRTYFVGMFCSLEHHRTNEAFARELAELKMRYRDELEVVVPGSSAPAVTDTDREKKLAFVNRVCSMELAYDGQELDMDA | not soluble
4 | METEEEIQNVNVHHGHNIRRTRIEKNIKQDALAALVNMTQPNVSKYEKMRVIEDEMLNRFARALNVPVEYLKTLEEDAPSVVFENITNNVHDNKDSSMGSTGYNNDSITNTFNPIDKITELYERLLKEKDEKYAALEKRIQGLEQQNNNGK | not soluble
5 | SFLNGNCLETLKKKEPEGGRRRLSHPGNMGWMRPSQETTPPDRSHHSGFGLFCGDPGPEIEPFSLWVFPQEMVLEIHQLFMDHEYPCHHITSHCTWVAAHWTTSQSCAAWQGCRRACCSTWWKSPAQCTRPTVMSATFETAQEPGPS | soluble
6 | MGSDKIHHHHHHMKQFQIVGIGNALVDVLSHCDDAFLAENGIAKGIMQLIDMGRAVDLYGRIGPAQEISGGSAANTIAGIAQLGGRTAYVGKVCDDQLGAIFAHDLRAQGAVYETPMAPKGGAQETGRCIILVSPDGERSMNTCLGWSEFLTPDDIDEAQMASTEWIYLEGYRFDGPESHAAFAKAIAACRGAGGRVSLTLSDPFCVERHRDAFRRMIREDVDLLFANRAEILSMYRTEDFGAALKAAAAEVAIVACTESEKGAHILADGQHWHVPALPTQIVDATGAGDLFAGAFLWGLTHGHGYETAGRMGCIAASEVISHLGARPEADLRALFRAQGVL | not soluble
7 | MHVDPIVEALIIRRKEHGLSREQMANIAGMSVKTYQRIERGESDLKLSQYRSILRSLNLTDLDIALDIRGIEHVTAEDLVTVARLLSPEAQSLLVRLLSLVLEQRSDPNAS | not soluble
8 | MLSLFALSEENKPELDCVANPTLLPHDIMYFDGFLSSEDEAFVADRLDAGEWSTELKRRVQHFGYRYDYKVRAVTPDAYLGPLPPWLGLFAERLVADGYCRTVPDQVIANEYLLGQGISAHVDCVPCFDDTIVSISLLSACEMVFRDLRGPGIRSVLHPRSGVLLRGSSRYDWTHEIPARKSDIVNGVKTARSRRISLTFRKVLGLKRPLEHHHHHH | not soluble
9 | MSNLNNLTSKILNDAEEKKKYILADAEAQKDKIISKKTNRAEADKEEIITKANIEAEVKKARIISNAKLSVRNDMLRAKQDVISKVFNEAIEKLQNLSNGDYKYYVISTLDSLELEGTEVIIINEKDKDIFSNEFLEALNKELESKGKKGSITLNMEGKFNGGFILDRNGIQINNTFEALINSLRGELEFEVNKVLFDLEHHHHHH | soluble
10 | MSLVVGTDAHKYSHTFVATDEVGRQLGEKTVKATTAGHATAIMWAREQFGLELIWGIEDCRNMSARLERDLLAAGQQVVRVPTKLMAQTRKSARSRGKSDPIDALAVARAVLRETDLPLATHDETSRELKLLTDRRDVLVAQRTSAINRLRWLVHELDPERAPAARSLDAAKHQQALRTWLDTQPGLVAELARAELTDIIRLTGEINTLAQRISARVHQVAPALLEIPGCAELTAAKIVGEAAGVTRFKSEAAFACHAAVAPIPVWSGNTAGQMRLSRSGNRQLNAALHRIALTQIRMTDSRGQAYYQRLQDAGKTKRAALRCLKRRLARTVFQALRTVHQPSSEHTQPAAACHRSYCSSHLGEPPRLTDMTQKTRIQPLPPKRAGLLIRALYRIAKRRFGEVPEPFTVTAHHRRLLIANVVHEALLQRASRKLPPSVRELAVFWTARSIGCSWCVDFGAMLQRLDGLDVDRLTDIDNYATSSKFSDDERAAIAYAEAMTADPHSVTDEQVADLRARFGEAGVIELTYQIGVENMRARMNSALGITEQGFNSGDACRVPWAAPDVPSAESREGHHHHHH | not soluble
11 | MSSASELMRCSGRWTLFRRTLPRLRKCVGVGETSGREKPPNSPNSSTLPMMTKTELSPPQIHINFIFFLPKNVFILKNCSL | not soluble
12 | GAMDMLGTSFNNFGISLSHKRYFSGKVDEIIRCTMGKRIVKISSTKINTSILSSVSEQIGENITDWKNDEKKVYVSRVVNQCIDKFCAEHSRKIGDNLRKQIFKQVEKDYRISLDINAAQSSINHLVSGSSYFKKKMDELCEGMNRSVKNDTTSNVANLISDQFFEKNVQYIDLKKLRGNMSDYITNLESPF | soluble
13 | GSHMGSLDETTYERLAEETLDSLAEFFEDLADKPYTFEDYDVSFGSGVLTVKLGGDLGTYVINKQTPNKQIWLSSPSSGPKRYDWTGKNWVYSHDGVSLHELLAAELTKALKTKLDLSSLAYSGKDA | soluble
14 | MSLEQLVLAIDLGTSGCKCALVSMEVDIRSWAFHGVPLHVSGLSAEQEPEDWWNAFMLGAHELLGADPLRRRQVVAICCSTQSEGTVCVDRNGAAIGRALLWLDKRGADSIKQRMGGGWCNLGGYGPLKLWRSLRLTGGVASLSGMDSAGHMAYILDHDPARYEKTHKFLNVLDYMNMRLSGRYCATGDSMLTAWITDNRDPHRIRYDDGLIRALGIDAGKLPELVGSTEVIGTLKPELADVLGLPRSTPVVAGAVDTSAVAVGATVRDFAPHLYLGTSSWVGAHVPFKKSSVRHHIAAVPSAVKGRYLAMAMQSAAGANLSFLRDKVLYHPDELLSDEQQPDVYALLDRIAARVPPGSRGLIYTPWLCGERSPVGDPSLRAGLINLKLEHSREDIIRAFMEGVAHNTRWMLEPFSRFIGQSSEIIVATGGGAQSDVWCQIMADVCGRVIQQPHNPIQTNARGAAFIAAVALGKLQFNDLPTLQRPHRLYEPSRSTRNLYDNRFATFKEVRKRLAPLYRRLNPSQETTEGHHHHHH | not soluble
15 | MGCAQSTPVDQPARQQPQATQQKSVEPAVVKKPVEPARVEPKVEVPSTKPSEVPHVEKAQSINRGQPGDGSGPLQQPSPAMPGAKQGGTKERRAAAGSEAVRDQIRKLAVGGPQAKEEKEKIYEVSDSEDEELEDDPSERTTLSGDWYKPQEVTDAILEALKRNFVFKGIPQNHLVEVVGRMYGISFKSGAVVLQQGALPKQDDCMYYLQQGEAEVVISGGADASKNHGEERKVDGHTVRIPQKPGWLFGDVALLFHSPRTASVVAKTNITVWAMDRRTFLKFVMKHAQGARALRFLRKLPLLKGLSDNDLIRAASRMPQRMYEDGQPLIRIGERGDELFLIRYGKVRVFRPDGNGGRVEVAVLGRGQFVGERAVINDKLRSADCVAQGQVQVVVLKKREFMDLDNPLLAWMLDYDAVSAVIRSLPQFKGLKQEQMENILDRFDAREELMQGDTILNQGDMLEKLYVVKIGEIALFRNDERVEDPNFVHEIAGFSYFGETAITQTGKCPYTIRVASESLHLLSLPKRQVDSFMGRDTGLKNEEAVVAALKKSKFLANMTDPEFKELLKACEQTDYNPGEVIAVANSSVTNKIFLVKSGEVMVVAADLALPDTGEVDVRKLTGSERQRLLAGSIFNDKALNSPETASLEASLVAGTPCGIITFTTSDVERVMGGRAMSRSRNAMPGAAAAVEERKFPRVKFTELEFHRIIGTGQFGLVRVVRNIKTNEVYALKVMHKAPIVESKQIEHVINERKILEEACTHPFCVRLCGAYQDKASLYLLQEWVPGGELFHHLDVEGAFDEPTAMFYAANVLLALEFLHAKGIVYRDLKPENLLLDTQGYIKMADFGFAKYIGGDKTYTICGTPDYQAPEVIMRRGTTKAADYWALGVLIFEMLVGDPPFKSLTGDPWDTFRRTLSGRFYVPNFISDQAADLIFKLLQVNPDKRLGSDKRLGAEEIKRHRWFSRIDWRALEQKKLPSPFRPRVRNPLDTSNFDNFDNVDLEPPPVPADRAEKHSQQWELWDWIDDSK | not soluble
16 | SLLEIDNQTPLESDFSLLEKIAKFLAPTQIIELVLVSDETMREINRDLRGCDYVTDVLSFPLEAIPHTPLGSVVINAPLAQENALKLGHRLEEEIALLFIHGVLHLLGYDHEKDKGEQRQKESELIKAFNLPLSLIERTQD | soluble
